According to patent publication US20150023958A1 (SAMSUNG ELECTRONICS, published 2015):

Assays:
human Ang2 = target: T1, human Ang2 (human, UniProt O15123 19-496); assay: ELISA, Ang2 coated on plate, anti-human Fc-HRP detection
T1 construct: Bought protein (R&D Systems); also called A2; angiopoietin 2
T1 sequence (looked up): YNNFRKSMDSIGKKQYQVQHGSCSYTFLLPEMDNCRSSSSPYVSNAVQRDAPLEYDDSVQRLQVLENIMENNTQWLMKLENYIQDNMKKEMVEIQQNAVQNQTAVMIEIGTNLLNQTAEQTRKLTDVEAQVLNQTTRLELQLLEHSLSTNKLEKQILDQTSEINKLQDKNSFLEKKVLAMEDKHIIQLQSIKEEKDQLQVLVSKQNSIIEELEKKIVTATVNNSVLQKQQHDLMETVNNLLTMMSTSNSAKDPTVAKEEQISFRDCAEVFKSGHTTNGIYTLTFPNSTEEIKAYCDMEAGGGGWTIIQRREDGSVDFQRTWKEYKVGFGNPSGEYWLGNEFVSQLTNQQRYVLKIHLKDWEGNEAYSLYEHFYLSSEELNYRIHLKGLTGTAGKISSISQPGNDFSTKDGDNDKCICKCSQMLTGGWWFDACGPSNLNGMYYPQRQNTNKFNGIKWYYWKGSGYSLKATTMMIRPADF
Protocol: (§1) To measure binding capacities of fusion polypeptides to each target, ELISA (Enzyme-linked immunosorbent assay) was conducted. On a 96-well MaxiSorp™ flat-bottom plate (Nunc), 50 ul of human VEGF-C, VEGF-D, or Ang2 (R&D Systems) were coated in the concentration of […]. And then, the plate was washed 5 times with PBS containing 0.05% Tween-20, and then, blocked with PBS containing 1% BSA at room temperature for 2 hours. 50 ul of each fusion polypeptide was put in each well according to concentration, and then, the plate was incubated at room temperature for 2 hours. And then, it was washed 5 times with PBS containing 0.05% Tween-20, and then, HRP-conjugated anti-human Fc antibody (Sigma) was diluted to 1:5,000 with PBS containing 1% BSA and reacted at room temperature for 1 hour, and washed 5 times with PBS containing 0.1% Tween-20. Finally, to each well of the plate, 50 μl of TMB substrate (SIGMA) was added to cause color reaction, and then, the reaction was stopped with 50 μl of a 5N H₂SO₄ solution, and OD450 value was measured on a plate reader (Molecular Devices). Thereby, binding capacities (KD) of the manufactured fusion polypeptides to human VEGF-C, VEGF-D or Ang2 protein were measured.

human VEGF-D = target: T2, human VEGF-D (human, UniProt O43915 93-201, limits assumed); assay: ELISA, VEGF-D coated on plate, anti-human Fc-HRP detection
T2 construct: Bought protein (R&D Systems); also called Vascular endothelial growth factor D
T2 sequence (looked up): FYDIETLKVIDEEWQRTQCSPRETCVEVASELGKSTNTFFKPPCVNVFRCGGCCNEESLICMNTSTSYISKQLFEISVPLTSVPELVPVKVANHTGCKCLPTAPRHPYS
Protocol: as §1

human VEGF-C = target: T3, human VEGF-C (human, UniProt P49767 103-227); assay: ELISA, VEGF-C coated on plate, anti-human Fc-HRP detection
T3 construct: Bought protein (R&D Systems); also called VC; Vascular endothelial growth factor C
T3 sequence (looked up): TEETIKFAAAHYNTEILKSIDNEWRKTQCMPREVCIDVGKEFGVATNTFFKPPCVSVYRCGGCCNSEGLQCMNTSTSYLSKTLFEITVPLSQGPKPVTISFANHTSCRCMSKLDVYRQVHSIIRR
Protocol: as §1

Row | Binder | Kd (human Ang2) [nM] | Kd (human VEGF-D) [nM] | Kd (human VEGF-C) [nM] | binding result (human Ang2)
1 | AV-body 2 (Fc fusion, also called fusion polypeptide AV-body 2; Tie2-ECD/R2-2/R3-2-Fc; not shown: Fc fragment of human IgG1, fused to the C-terminus through the pFUSE-hIgG1-Fc1 vector (InvivoGen)) AMDLILINSLPLVSDAETSLTCIASGWRPHEPITIGRDFEALMNQHQDPLEVTQDVTREWAKKVVWKREKASKINGAYFCEGRVRGEAIRIRTMKMRQQASFLPATLTMTVDKGDNVNISFKKVLIKEEDAVIYKNGSFIHSVPRHEVPDILEVHLPHAQPQDAGVYSARYIGGNLFTSAFTRLIVRRCEAQKWGPECNHLCTACMNNGVCHEDTGECICPPGFMGRTCEKACELHTFGRTCKERCSGQEGCKSYVFCLPDPYGCSCATGWKGLQCNEACHPGFYGPDCKLRCSCNNGEMCDRFQGCLCSPGWQGLQCEREGIEFMQSKVLLAVALWLCVETRAASDYRSPFIASVSDQHGVVYITENKNKTVVIPCLGSISNLNVSLCARYPEKRFVPDGNRISWDSKKGFTIPSYMISYAGMVFCEAKINDESYQSIMYIVVVVGEQPFINKPDTLLVNRKDAMWVPCLVSIPGLNVTLRSQSSVLWPDGQEVVWDDRRGMLVSTPLLHDALYLQCETTWGDQDFLSNPFLVHITG | 20 | 42 | 34 | 
2 | V-body (Fc fusion, Expressed in 293-F cells and purified on MabSelect SuRe; also called fusion polypeptide V-body; R2-2/R3-2-Fc; not shown: Fc fragment of human IgG1, fused to the C-terminus through the pFUSE-hIgG1-Fc1 vector (InvivoGen)) ASDYRSPFIASVSDQHGVVYITENKNKTVVIPCLGSISNLNVSLCARYPEKRFVPDGNRISWDSKKGFTIPSYMISYAGMVFCEAKINDESYQSIMYIVVVVGEQPFINKPDTLLVNRKDAMWVPCLVSIPGLNVTLRSQSSVLWPDGQEVVWDDRRGMLVSTPLLHDALYLQCETTWGDQDFLSNPFLVHITG |  | 100 | 100 | no binding
3 | AV-body 1 (Fc fusion, also called fusion polypeptide AV-body 1; Tie2-ECD/R2-2/R2-3-Fc; not shown: Fc fragment of human IgG1, fused to the C-terminus through the pFUSE-hIgG1-Fc1 vector (InvivoGen)) AMDLILINSLPLVSDAETSLTCIASGWRPHEPITIGRDFEALMNQHQDPLEVTQDVTREWAKKVVWKREKASKINGAYFCEGRVRGEAIRIRTMKMRQQASFLPATLTMTVDKGDNVNISFKKVLIKEEDAVIYKNGSFIHSVPRHEVPDILEVHLPHAQPQDAGVYSARYIGGNLFTSAFTRLIVRRCEAQKWGPECNHLCTACMNNGVCHEDTGECICPPGFMGRTCEKACELHTFGRTCKERCSGQEGCKSYVFCLPDPYGCSCATGWKGLQCNEACHPGFYGPDCKLRCSCNNGEMCDRFQGCLCSPGWQGLQCEREGIEFSPFIASVSDQHGVVYITENKNKTVVIPCLGSISNLNVSLCARYPEKRFVPDGNRISWDSKKGFTIPSYMISYAGMVFCEAKINDESYQSIMYIVVVVGYRIYDVVLSPSHGIELSVGEKLVLNCTARTELNVGIDFNWEYPSSKHQHKKLVNRDLKTQSGSEMKKFLSTLTIDGVTRSDQGLYTCAASSGLMTKKNSTFVRVHE | 45 | 170 | 130 | 
